{"source": "paper PMC1343528", "about": "(The Journal of Cell Biology, 2005)", "molecular_target": "calmodulin, purified (UniProt P0DP23 1-149)", "test": "pull-down"}
{"binder": "GST fusion of α1C aa 1581–1690 with EEDAAA in place of TVGKFY (Mut6) (domain or fragment) not shown", "values": [{"measurement": "binding result", "result": "binds"}]}
